In patent US20150344570A1 (published 2015):

T1: FcγRIIb, extracellular domain with C-terminal His tag (human, UniProt P31994 43-217)
T1 construct: extracellular domain; also called FcgRIIb; 2b; not shown: His tag at the C terminus
T1 sequence (looked up): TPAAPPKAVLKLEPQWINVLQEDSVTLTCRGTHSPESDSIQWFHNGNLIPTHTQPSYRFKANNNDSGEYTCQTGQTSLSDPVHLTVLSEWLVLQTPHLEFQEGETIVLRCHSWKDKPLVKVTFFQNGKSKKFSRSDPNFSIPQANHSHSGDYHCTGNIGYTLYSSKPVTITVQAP

T2: FcγRIIa H (FcγRIIa, allotype with His at position 131), extracellular domain with C-terminal His tag (human, UniProt P12318 34-217)
T2 construct: extracellular domain; also called FcgRIIa H; 2aH; not shown: His tag at the C terminus
T2 sequence (looked up): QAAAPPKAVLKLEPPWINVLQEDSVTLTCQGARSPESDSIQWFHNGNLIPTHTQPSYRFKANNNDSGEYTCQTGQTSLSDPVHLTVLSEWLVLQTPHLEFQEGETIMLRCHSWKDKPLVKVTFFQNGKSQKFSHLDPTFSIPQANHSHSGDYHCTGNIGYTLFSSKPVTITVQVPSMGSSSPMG

T3: FcγRIIb extracellular domain with C-terminal His tag (human, UniProt P31994 43-217)
T3 construct: extracellular domain; also called FcgRIIb; 2b; not shown: His tag attached to the C terminus
T3 sequence (looked up): T1 sequence (looked up)

T4: FcγRIIb extracellular domain with C-terminal His tag (human, UniProt P31994 43-217)
T4 construct: extracellular domain; Soluble receptor used as analyte in Biacore; also called FcgRIIb
T4 sequence (looked up): T1 sequence (looked up)

B1: GpH7-A5/GpH7-B3 variant N325_01G/GpL16-k0 (antibody, human IgG1, kappa)
heavy 1: not shown
heavy 2: not shown
light: DIVMTQSPLSLPVTPGEPASISCQASESLVHSNRNTYLHWYLQKPGQSPQLLIYKVSNRFSGVPDRFSGSGSGTDFTLKISRVEAEDVGVYYCSQNTHVPPTFGQGTKVEIERTVAAPSVFIFPPSDEQLKSGTASVVCLLNNFYPREAKVQWKVDNALQSGNSQESVTEQDSKDSTYSLSSTLTLSKADYEKHKVYACEVTHQGLSSPVTKSFNRGEC
notes: Heterodimerized anti-glypican-3 IgG1; mutation in one H chain only; also called He Ab
B2: GpH7-A5/GpH7-B3 variant K326_05P/GpL16-k0 (antibody, human IgG1, kappa)
heavy 1: not shown
heavy 2: not shown
light: B1 light
notes: as for B1
B3: GpH7-A5/GpH7-B3 variant K326_04F/GpL16-k0 (antibody, human IgG1, kappa)
heavy 1: not shown
heavy 2: not shown
light: B1 light
notes: as for B1
B4: GpH7-A5/GpH7-B3 variant A327_09D/GpL16-k0 (antibody, human IgG1, kappa)
heavy 1: not shown
heavy 2: not shown
light: B1 light
notes: Heterodimerized IgG1, mutation in the GpH7-B3 chain only; also called He Ab
B5: GpH7-A5/GpH7-B3 variant N325_06M/GpL16-k0 (antibody, human IgG1, kappa)
heavy 1: not shown
heavy 2: not shown
light: B1 light
notes: as for B4
B6: GpH7-A5/GpH7-B3 variant A330_05P/GpL16-k0 (antibody, human IgG1, kappa)
heavy 1: not shown
heavy 2: not shown
light: B1 light
notes: as for B4
B7: GpH7-A5/GpH7-B3 variant L328_09D/GpL16-k0 (antibody, human IgG1, kappa)
heavy 1: not shown
heavy 2: not shown
light: B1 light
notes: as for B4
B8: GpH7-A5/GpH7-B3 variant N325_08L/GpL16-k0 (antibody, human IgG1, kappa)
heavy 1: not shown
heavy 2: not shown
light: B1 light
notes: as for B4
B9: GpH7-A5/GpH7-B3 variant L328_07I/GpL16-k0 (antibody, human IgG1, kappa)
heavy 1: not shown
heavy 2: not shown
light: B1 light
notes: as for B4
B10: GpH7-A5/GpH7-B3 variant N325_07I/GpL16-k0 (antibody, human IgG1, kappa)
heavy 1: not shown
heavy 2: not shown
light: B1 light
notes: as for B4
B11: GpH7-A5/GpH7-B3 variant L328_13S/GpL16-k0 (antibody, human IgG1, kappa)
heavy 1: not shown
heavy 2: not shown
light: B1 light
notes: as for B4
B12: GpH7-A5/GpH7-B3 variant N325_04F/GpL16-k0 (antibody, human IgG1, kappa)
heavy 1: not shown
heavy 2: not shown
light: B1 light
notes: as for B4
B13: GpH7-A5/GpH7-B3 variant L328_10E/GpL16-k0 (antibody, human IgG1, kappa)
heavy 1: not shown
heavy 2: not shown
light: B1 light
notes: as for B4
B14: GpH7-A5/GpH7-B3 variant A327_10E/GpL16-k0 (antibody, human IgG1, kappa)
heavy 1: not shown
heavy 2: not shown
light: B1 light
notes: as for B4
B15: GpH7-A5/GpH7-B3 variant L328_04F/GpL16-k0 (antibody, human IgG1, kappa)
heavy 1: not shown
heavy 2: not shown
light: B1 light
notes: as for B4
B16: GpH7-A5/GpH7-B3 variant L328_15Y/GpL16-k0 (antibody, human IgG1, kappa)
heavy 1: not shown
heavy 2: not shown
light: B1 light
notes: as for B4
B17: GpH7-A5/GpH7-B3 variant L328_06M/GpL16-k0 (antibody, human IgG1, kappa)
heavy 1: not shown
heavy 2: not shown
light: B1 light
notes: as for B4
B18: GpH7-A5/GpH7-B3 variant P331_03V/GpL16-k0 (antibody, human IgG1, kappa)
heavy 1: not shown
heavy 2: not shown
light: B1 light
notes: as for B4
B19: GpH7-A5/GpH7-B3 variant N325_13S/GpL16-k0 (antibody, human IgG1, kappa)
heavy 1: not shown
heavy 2: not shown
light: B1 light
notes: as for B4
B20: GpH7-A5/GpH7-B3 variant N325_20W/GpL16-k0 (antibody, human IgG1, kappa)
heavy 1: not shown
heavy 2: not shown
light: B1 light
notes: as for B4
B21: GpH7-A5/GpH7-B3 variant I332_10E/GpL16-k0 (antibody, human IgG1, kappa)
heavy 1: not shown
heavy 2: not shown
light: B1 light
notes: as for B4
B22: GpH7-A5/GpH7-B3 variant P331_16H/GpL16-k0 (antibody, human IgG1, kappa)
heavy 1: not shown
heavy 2: not shown
light: B1 light
notes: as for B4
B23: GpH7-A5/GpH7-B3 variant L328_02A/GpL16-k0 (antibody, human IgG1, kappa)
heavy 1: not shown
heavy 2: not shown
light: B1 light
notes: as for B4
B24: GpH7-A5/GpH7-B3 variant L328_14T/GpL16-k0 (antibody, human IgG1, kappa)
heavy 1: not shown
heavy 2: not shown
light: B1 light
notes: as for B4
B25: GpH7-A5/GpH7-B3 variant I332_09D/GpL16-k0 (antibody, human IgG1, kappa)
heavy 1: not shown
heavy 2: not shown
light: B1 light
notes: as for B4
B26: GpH7-A5/GpH7-B3 variant L328_20W/GpL16-k0 (antibody, human IgG1, kappa)
heavy 1: not shown
heavy 2: not shown
light: B1 light
notes: as for B4
B27: GpH7-A5/GpH7-B3 variant L328_09D/GpL16-k0 (He Ab) (antibody, human IgG1, kappa)
heavy 1: not shown
heavy 2: not shown
light: B1 light
notes: Heterodimerized antibody with the alteration in one H chain only
B28: GpH7-A5/GpH7-B3 variant L328_19Q/GpL16-k0 (He Ab) (antibody, human IgG1, kappa)
heavy 1: not shown
heavy 2: not shown
light: B1 light
notes: as for B27
B29: GpH7-A5/GpH7-B3 variant P331_15Y/GpL16-k0 (He Ab) (antibody, human IgG1, kappa)
heavy 1: not shown
heavy 2: not shown
light: B1 light
notes: as for B27
B30: GpH7-A5/GpH7-B3 variant L328_20W/GpL16-k0 (He Ab) (antibody, human IgG1, kappa)
heavy 1: not shown
heavy 2: not shown
light: B1 light
notes: as for B27
B31: GpH7-A5/GpH7-B3 variant P331_07I/GpL16-k0 (He Ab) (antibody, human IgG1, kappa)
heavy 1: not shown
heavy 2: not shown
light: B1 light
notes: as for B27
B32: GpH7-A5/GpH7-B3 variant L328_13S/GpL16-k0 (He Ab) (antibody, human IgG1, kappa)
heavy 1: not shown
heavy 2: not shown
light: B1 light
notes: as for B27

The binders below were run against T1, FcγRIIb, extracellular domain with … (assay: SPR (Biacore), relative binding vs GpH7-A5/GpH7-B3/GpL16-k0).

He/Con_2b | Binder
101 % of HeCon Ab (=100) | B1
126 % of HeCon Ab (=100) | B2
155 % of HeCon Ab (=100) | B3

Each binder was assayed against T2, FcγRIIa H (FcγRIIa, allotype with His …) in the same assay as above.

He/Con_2aH | Binder
56.8 % of HeCon Ab (=100) | B1
98.8 % of HeCon Ab (=100) | B2
97 % of HeCon Ab (=100) | B3

These binders were tested against T2, FcγRIIa H (FcγRIIa, allotype with His …) (assay: SPR (Biacore); He/Con_2aH divided by He/Con_2b (FcγRIIb)).

He_2aH/2b (IIaH/IIb) [ratio] | Binder
0.56 | B1
0.79 | B2
0.63 | B3

These binders were tested against T5, FcγRIa extracellular domain with C-terminal His tag (human, UniProt P12314 16-292) (assay: ratio He/Con_1a : He/Con_2b (FcγRIa over FcγRIIb), SPR (Biacore)).
T5 construct: extracellular domain; Soluble receptor used as analyte in Biacore; also called FcgRI
T5 sequence (P12314 16-292): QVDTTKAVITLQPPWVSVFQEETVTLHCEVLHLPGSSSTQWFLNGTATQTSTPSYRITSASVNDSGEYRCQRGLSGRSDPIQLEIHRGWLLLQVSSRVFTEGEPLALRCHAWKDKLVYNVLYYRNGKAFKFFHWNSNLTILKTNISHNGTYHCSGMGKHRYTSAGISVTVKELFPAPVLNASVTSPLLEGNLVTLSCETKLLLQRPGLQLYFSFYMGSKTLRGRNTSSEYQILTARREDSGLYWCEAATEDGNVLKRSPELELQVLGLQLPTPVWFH

He_1a/2b (Ia/IIb) | Binder
0.6 | B4
0.45 | B5
0.74 | B6
0.51 | B7
0.5 | B8
0.62 | B9
0.55 | B10
0.66 | B11
0.65 | B12
0.59 | B13
0.74 | B14
0.45 | B15
0.53 | B16
0.7 | B17
0.78 | B18
0.55 | B19
0.56 | B20
0.68 | B21
0.8 | B22
0.68 | B23
0.71 | B24
0.64 | B25
0.44 | B26

The binders below were run against T3, FcγRIIb extracellular domain with … (assay: SPR (Biacore), antibody captured on antigen peptide chip, FcγR as analyte; relative binding).
Description: (§1) The heterodimerized antibodies He Abs in which one of the H chains was introduced with an alteration were assayed for their binding activities to each activating FcγR and inhibitory FcγR according to the method described in Example 4. […] The activating FcγRs in FIGS. 26, 27, 28, and 29 are FcγRIa, FcγRIIa (R), FcγRIIa (H), and FcγRIIIa, respectively.
(§2) Analysis of interaction between objective antibody and the FcγR was carried out using Biacore T100 (GE Healthcare). HBS-EP+ (GE Healthcare) was used as the running buffer, and the measurement temperature was set to 25° C. Chips produced by immobilizing the antigen peptide by the amine coupling method to a Series S Sencor Chip CM5 (GE Healthcare), or alternatively, chips produced by allowing preliminarily biotinylated antigen peptides to interact with and immobilize onto a Series S Sensor Chip SA (certified) (GE Healthcare) were used. Antibodies of interest were captured onto an antigen peptide-immobilized chip, and allowed to interact to each FcγR diluted with running buffer. To regenerate and repeatedly use the chip, the antibodies captured on the chip were washed off by reacting 10 mM glycine-HCl, pH 1.5.

He/Con_2b | Binder
199 % of GpH7-A5/GpH7-B3/GpL16-k0 (=100) | B27
105 % of GpH7-A5/GpH7-B3/GpL16-k0 (=100) | B28
114 % of GpH7-A5/GpH7-B3/GpL16-k0 (=100) | B29
235 % of GpH7-A5/GpH7-B3/GpL16-k0 (=100) | B30
114 % of GpH7-A5/GpH7-B3/GpL16-k0 (=100) | B31
149 % of GpH7-A5/GpH7-B3/GpL16-k0 (=100) | B32

The binders below were run against T6, FcγRIIIa extracellular domain with C-terminal His tag (human, UniProt P08637 17-208) in the same assay as above.
T6 construct: extracellular domain; also called FcgRIIIa; 3a; not shown: His tag attached to the C terminus
T6 sequence (P08637 17-208): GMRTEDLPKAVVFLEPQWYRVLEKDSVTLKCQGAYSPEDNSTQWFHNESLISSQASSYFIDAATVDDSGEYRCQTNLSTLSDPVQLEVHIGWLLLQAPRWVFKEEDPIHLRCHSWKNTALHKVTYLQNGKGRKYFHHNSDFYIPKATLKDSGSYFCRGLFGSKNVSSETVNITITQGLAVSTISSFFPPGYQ
Description: as §1, §2

He/Con_3a | Binder
47.8 % of GpH7-A5/GpH7-B3/GpL16-k0 (=100) | B27
81.1 % of GpH7-A5/GpH7-B3/GpL16-k0 (=100) | B28
81.9 % of GpH7-A5/GpH7-B3/GpL16-k0 (=100) | B29
37.4 % of GpH7-A5/GpH7-B3/GpL16-k0 (=100) | B30
66 % of GpH7-A5/GpH7-B3/GpL16-k0 (=100) | B31
71.7 % of GpH7-A5/GpH7-B3/GpL16-k0 (=100) | B32

The binders below were run against T4, FcγRIIb extracellular domain with … (assay: SPR (Biacore), antibody captured, FcγR as analyte; binding relative to GpH7-A5/GpH7-B3/GpL16-k0 = 100).

He/Con_2b [control = 100] | Binder
172 | B4
217 | B5
137 | B6
199 | B7
197 | B8
160 | B9
171 | B10
149 | B11
143 | B12
172 | B13
140 | B14
219 | B15
193 | B16
142 | B17
119 | B18
177 | B19
169 | B20
142 | B21
116 | B22
144 | B23
141 | B24
147 | B25
235 | B26

These binders were tested against T5, FcγRIa extracellular domain with … in the same assay as above.

He/Con_1a [control = 100] | Binder
103 | B4
97.6 | B5
101 | B6
102 | B7
97.5 | B8
99.4 | B9
94.8 | B10
99 | B11
93.2 | B12
101 | B13
103 | B14
97.9 | B15
102 | B16
98.7 | B17
92 | B18
96.8 | B19
93.8 | B20
96.3 | B21
92.4 | B22
98.5 | B23
100 | B24
93.4 | B25
103 | B26
